Target: T1, EphA2 receptor on tumor cells (human, UniProt P29317 24-976)
Assay: cell-based or functional assay

T1 sequence (P29317 24-976): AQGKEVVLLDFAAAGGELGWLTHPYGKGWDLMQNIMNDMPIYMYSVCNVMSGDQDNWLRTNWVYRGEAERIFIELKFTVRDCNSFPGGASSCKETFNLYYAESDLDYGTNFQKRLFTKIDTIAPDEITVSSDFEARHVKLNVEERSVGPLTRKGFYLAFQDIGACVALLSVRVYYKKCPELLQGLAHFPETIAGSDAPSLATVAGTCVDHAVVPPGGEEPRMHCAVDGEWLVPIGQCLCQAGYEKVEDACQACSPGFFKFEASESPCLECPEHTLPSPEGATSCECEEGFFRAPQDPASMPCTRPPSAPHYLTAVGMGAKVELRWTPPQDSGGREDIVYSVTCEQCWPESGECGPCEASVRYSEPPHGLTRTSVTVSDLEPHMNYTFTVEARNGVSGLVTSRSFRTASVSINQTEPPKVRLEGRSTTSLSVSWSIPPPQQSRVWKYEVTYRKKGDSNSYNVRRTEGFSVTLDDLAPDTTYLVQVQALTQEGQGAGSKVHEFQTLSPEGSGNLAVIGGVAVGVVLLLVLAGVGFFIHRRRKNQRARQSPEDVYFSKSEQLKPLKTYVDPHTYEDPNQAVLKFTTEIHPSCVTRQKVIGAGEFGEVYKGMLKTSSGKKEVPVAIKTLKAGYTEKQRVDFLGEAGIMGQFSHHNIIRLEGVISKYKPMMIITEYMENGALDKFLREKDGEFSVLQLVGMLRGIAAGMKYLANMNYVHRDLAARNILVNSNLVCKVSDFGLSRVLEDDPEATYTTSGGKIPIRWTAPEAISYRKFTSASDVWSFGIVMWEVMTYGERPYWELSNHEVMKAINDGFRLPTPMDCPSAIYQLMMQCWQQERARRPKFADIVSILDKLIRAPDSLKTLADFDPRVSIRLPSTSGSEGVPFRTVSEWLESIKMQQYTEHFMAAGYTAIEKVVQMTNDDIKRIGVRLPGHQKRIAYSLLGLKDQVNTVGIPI

Binder	IC50 (M), cytotoxic activity on Lovo cells (WST8, 5 days)
hu2H11R35R74-PEG4-Mal-DM4 (DAR 7.00) (antibody, V domains shown, DM4 through PEG4-Mal linker on lysine residues, sites not given; average DAR 7.00) VH: QVQLVQSGAEVVKPGASVKISCKASGYTFTAYYMHWVKQSPVQSLEWIGLVNPYNGFSSYNQKFQGKASLTVDRSSSTAYMELHSLTSEDSAVYYCAREFYGYRYFDVWGQGTAVTVSS VL: not shown	1.16e-11 M
hu2H11R35R74-PEG4-Mal-DM4 (DAR 6.70) (antibody, V domains shown, DM4 through PEG4-Mal linker on lysine residues, sites not given; average DAR 6.70) VH: QVQLVQSGAEVVKPGASVKISCKASGYTFTAYYMHWVKQSPVQSLEWIGLVNPYNGFSSYNQKFQGKASLTVDRSSSTAYMELHSLTSEDSAVYYCAREFYGYRYFDVWGQGTAVTVSS VL: not shown	7.96e-11 M
hu2H11-PEG4-Mal-DM4 (DAR 6.99) (antibody, V domains shown, DM4 through PEG4-Mal linker on lysine residues, sites not given; average DAR 6.99) VH: QVQLVQSGAEVVKPGASVKISCKASGYTFTAYYMHWVKQSPVQSLEWIGLVNPYNGFSSYNQKFQGKASLTVDKSSSTAYMELHSLTSEDSAVYYCAREFYGYRYFDVWGQGTAVTVSS VL: not shown	1.22e-10 M

Target: T1, EphA2 receptor on tumor cells
Assay: cell-based or functional assay
Remark: another data set of the same source

MDA-MB231 + naked 2H11 (1 uM) IC50 (nM), 14C thymidine uptake	MDA-MB231 IC50 (nM), 14C thymidine uptake	Ratio of IC50s (with naked 2H11 / alone) on MDA-MB231	Binder
8.1 nM	1.1 nM	7	hu2H11-SPDB-DM4 (DAR 3.93) (antibody, V domains shown, DM4 through SPDB linker on lysine residues, sites not given; average DAR 3.93) VH: QVQLVQSGAEVVKPGASVKISCKASGYTFTAYYMHWVKQSPVQSLEWIGLVNPYNGFSSYNQKFQGKASLTVDKSSSTAYMELHSLTSEDSAVYYCAREFYGYRYFDVWGQGTAVTVSS VL: not shown
27.4 nM	0.2 nM	114	hu2H11-PEG4-NHAc-DM4 (DAR 5.3) (antibody, V domains shown, DM4 through PEG4-NHAc linker on lysine residues, sites not given; average DAR 5.3) VH: QVQLVQSGAEVVKPGASVKISCKASGYTFTAYYMHWVKQSPVQSLEWIGLVNPYNGFSSYNQKFQGKASLTVDKSSSTAYMELHSLTSEDSAVYYCAREFYGYRYFDVWGQGTAVTVSS VL: not shown
25.1 nM	0.1 nM	228	hu2H11R35R74-PEG4-Mal-DM4 (DAR 6.1) (antibody, V domains shown, DM4 through PEG4-Mal linker on lysine residues, sites not given; average DAR 6.1) VH: QVQLVQSGAEVVKPGASVKISCKASGYTFTAYYMHWVKQSPVQSLEWIGLVNPYNGFSSYNQKFQGKASLTVDRSSSTAYMELHSLTSEDSAVYYCAREFYGYRYFDVWGQGTAVTVSS VL: not shown
11.5 nM	1.2 nM	9	hu2H11R35R74-SPDB-DM4 (DAR 3.97) (antibody, V domains shown, DM4 through SPDB linker on lysine residues, sites not given; average DAR 3.97) VH: QVQLVQSGAEVVKPGASVKISCKASGYTFTAYYMHWVKQSPVQSLEWIGLVNPYNGFSSYNQKFQGKASLTVDRSSSTAYMELHSLTSEDSAVYYCAREFYGYRYFDVWGQGTAVTVSS VL: not shown
80.8 nM	0.06 nM	1350	hu2H11R35R74-PEG4-NHAc-DM4 (DAR 5.5) (antibody, V domains shown, DM4 through PEG4-NHAc linker on lysine residues, sites not given; average DAR 5.5) VH: QVQLVQSGAEVVKPGASVKISCKASGYTFTAYYMHWVKQSPVQSLEWIGLVNPYNGFSSYNQKFQGKASLTVDRSSSTAYMELHSLTSEDSAVYYCAREFYGYRYFDVWGQGTAVTVSS VL: not shown

Target: T1, EphA2 receptor on tumor cells
Assay: cell-based or functional assay
Remark: another data set of the same source

IC50 (pM), + naked hu2H11R35R74 (1 uM), MDA MB231 cells	IC50 (pM), ADC alone, MDA MB231 cells, 14C thymidine uptake	ratio of IC50s (+ naked hu2H11R35R74 / ADC alone)	Binder
29700 pM	147 pM	202	hu2H11-R35R74-PEG4-AcNH-DM4 (DAR 5.9) (antibody, V domains shown, DM4 through PEG4-AcNH linker on lysine residues, sites not given; average DAR 5.9) VH: QVQLVQSGAEVVKPGASVKISCKASGYTFTAYYMHWVKQSPVQSLEWIGLVNPYNGFSSYNQKFQGKASLTVDRSSSTAYMELHSLTSEDSAVYYCAREFYGYRYFDVWGQGTAVTVSS VL: not shown
19500 pM	185 pM	105	hu2H11-R35R74-Acetyl-DM4 (DAR 6.5) (antibody, V domains shown, DM4 through Acetyl linker, sites not given; average DAR 6.5) VH: QVQLVQSGAEVVKPGASVKISCKASGYTFTAYYMHWVKQSPVQSLEWIGLVNPYNGFSSYNQKFQGKASLTVDRSSSTAYMELHSLTSEDSAVYYCAREFYGYRYFDVWGQGTAVTVSS VL: not shown
25000 pM	400 pM	62	hu2H11-R35R74-PEG8-AcNH-DM4 (DAR 4.9) (antibody, V domains shown, DM4 through PEG8-AcNH linker on lysine residues, sites not given; average DAR 4.9) VH: QVQLVQSGAEVVKPGASVKISCKASGYTFTAYYMHWVKQSPVQSLEWIGLVNPYNGFSSYNQKFQGKASLTVDRSSSTAYMELHSLTSEDSAVYYCAREFYGYRYFDVWGQGTAVTVSS VL: not shown
7820 pM	161 pM	49	hu2H11-R35R74-PEG4-Allyl-DM4 (DAR 5.3) (antibody, V domains shown, DM4 through PEG4-Allyl linker on lysine residues, sites not given; average DAR 5.3) VH: QVQLVQSGAEVVKPGASVKISCKASGYTFTAYYMHWVKQSPVQSLEWIGLVNPYNGFSSYNQKFQGKASLTVDRSSSTAYMELHSLTSEDSAVYYCAREFYGYRYFDVWGQGTAVTVSS VL: not shown
36400 pM	217 pM	168	hu2H11-R35R74-PEG4-AcNMe-DM4 (DAR 5.4) (antibody, V domains shown, DM4 through PEG4-AcNMe linker on lysine residues, sites not given; average DAR 5.4) VH: QVQLVQSGAEVVKPGASVKISCKASGYTFTAYYMHWVKQSPVQSLEWIGLVNPYNGFSSYNQKFQGKASLTVDRSSSTAYMELHSLTSEDSAVYYCAREFYGYRYFDVWGQGTAVTVSS VL: not shown

Target: T2, huEphA2-mFc (human, UniProt P29317 24-534, limits assumed)
T2 construct: Immobilised antigen of the Biacore experiment; also called EphA2-Fc; extra-cellular domain of EphA2 receptor-Fc; not shown: mouse Fc (mFc)
T2 sequence (P29317 24-534 limits assumed): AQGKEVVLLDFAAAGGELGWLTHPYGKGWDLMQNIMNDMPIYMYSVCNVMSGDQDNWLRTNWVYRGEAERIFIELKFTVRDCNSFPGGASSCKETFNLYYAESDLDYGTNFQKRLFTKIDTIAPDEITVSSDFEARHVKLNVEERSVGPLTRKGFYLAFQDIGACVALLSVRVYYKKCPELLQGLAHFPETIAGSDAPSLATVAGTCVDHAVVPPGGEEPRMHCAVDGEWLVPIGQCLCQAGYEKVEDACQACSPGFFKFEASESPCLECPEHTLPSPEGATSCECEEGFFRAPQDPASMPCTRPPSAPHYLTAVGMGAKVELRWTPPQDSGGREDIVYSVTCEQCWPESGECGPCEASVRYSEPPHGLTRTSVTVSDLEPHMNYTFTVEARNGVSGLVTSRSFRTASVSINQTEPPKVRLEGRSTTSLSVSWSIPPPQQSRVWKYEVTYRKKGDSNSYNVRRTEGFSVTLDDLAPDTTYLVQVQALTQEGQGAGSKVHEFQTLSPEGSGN
Assay: SPR, Biacore 3000; EphA2-Fc amine-coupled on C1 chip, IgG in flow, 25 C, 1:1 Langmuir fit
Description: pH=4.5) was coupled to the matrix of a C1 sensor chip (GE healthcare BR-1005-40) at 10 μl/min using a standard amine coupling protocol with EDC (N-ethyl-N′-[dimethyl-aminopropyl]carbodiimide)/NHS (N-hydroxysuccinimide). The density was controlled at an increased response level of ˜100 response units (RU) in kinetic binding experiments. IgGs were diluted in 0.01 M Hepes, pH 7.4 containing 0.15 M NaCl, 3 mM EDTA, and 0.005% P20. All subsequent dilutions were made in the same buffer. All binding experiments were performed at 25° C. with IgG concentrations typically ranging from 50 to 0.2 nM at a flow rate of 50 μl/min.
Data were collected for approximately 12 min (2 min association time and 10 min dissociation time) and 1 min pulse at 30 μl/min of 1M NaCl, 50 mM NaOH was used to regenerate the surfaces. IgGs were also flowed over an uncoated cell and the sensorgrams from the blank runs were substracted from those obtained with EphA2-Fc coupled chips. Data were fitted to a 1:1 Langmuir binding model with drifting baseline. This algorithm calculates both the kₒₙ and the koff, from which the apparent equilibrium dissociation constant KD, is deduced as the ratio of the two rate constants (koff/kₒₙ).
The affinity constant was first measured with both naked hu2H11 and hu2H11R35R74.

Ka	Kd	Ratio (KD against naked hu2H11)	koff	kon	Binder
3.8e+09 M⁻¹	263 pM	0.9 fold	0.00115 s⁻¹	4.35e+06 M⁻¹ s⁻¹	hu2H11R35R74-PEG4-NHAc-DM4 (D/A 5.6) (antibody, V domains shown, DM4 through PEG4-NHAc linker on lysine residues, sites not given; average D/A 5.6 per antibody, Antibody-drug conjugate of hu2H11R35R74; constant regions as for m2) VH: QVQLVQSGAEVVKPGASVKISCKASGYTFTAYYMHWVKQSPVQSLEWIGLVNPYNGFSSYNQKFQGKASLTVDRSSSTAYMELHSLTSEDSAVYYCAREFYGYRYFDVWGQGTAVTVSS VL: not shown
4.59e+09 M⁻¹	218 pM	0.7 fold	0.00115 s⁻¹	5.25e+06 M⁻¹ s⁻¹	hu2H11R35R74 (antibody, V domains shown, only the variable domains are tied by name to humanized 2H11R35R74; also called humanized 2H11R35R74; naked hu2H11R35R74) VH: QVQLVQSGAEVVKPGASVKISCKASGYTFTAYYMHWVKQSPVQSLEWIGLVNPYNGFSSYNQKFQGKASLTVDRSSSTAYMELHSLTSEDSAVYYCAREFYGYRYFDVWGQGTAVTVSS VL: not shown
3.55e+09 M⁻¹	282 pM	0.9 fold	0.00119 s⁻¹	4.21e+06 M⁻¹ s⁻¹	hu2H11R35R74-PEG4-NHAc-DM4 (D/A 6.3) (antibody, V domains shown, DM4 through PEG4-NHAc linker on lysine residues, sites not given; average D/A 6.3 per antibody, Antibody-drug conjugate of hu2H11R35R74; constant regions as for m2) VH: QVQLVQSGAEVVKPGASVKISCKASGYTFTAYYMHWVKQSPVQSLEWIGLVNPYNGFSSYNQKFQGKASLTVDRSSSTAYMELHSLTSEDSAVYYCAREFYGYRYFDVWGQGTAVTVSS VL: not shown
3.64e+09 M⁻¹	275 pM	0.9 fold	0.00123 s⁻¹	4.47e+06 M⁻¹ s⁻¹	hu2H11R35R74-PEG4-NHAc-DM4 (D/A 7.4) (antibody, V domains shown, DM4 through PEG4-NHAc linker on lysine residues, sites not given; average D/A 7.4 per antibody, Antibody-drug conjugate of hu2H11R35R74; constant regions as for m2) VH: QVQLVQSGAEVVKPGASVKISCKASGYTFTAYYMHWVKQSPVQSLEWIGLVNPYNGFSSYNQKFQGKASLTVDRSSSTAYMELHSLTSEDSAVYYCAREFYGYRYFDVWGQGTAVTVSS VL: not shown
2.38e+09 M⁻¹	421 pM	1.4 fold	0.00129 s⁻¹	3.08e+06 M⁻¹ s⁻¹	hu2H11R35R74-PEG4-NHAc-DM4 (D/A 9.3) (antibody, V domains shown, DM4 through PEG4-NHAc linker on lysine residues, sites not given; average D/A 9.3 per antibody, Antibody-drug conjugate of hu2H11R35R74; constant regions as for m2) VH: QVQLVQSGAEVVKPGASVKISCKASGYTFTAYYMHWVKQSPVQSLEWIGLVNPYNGFSSYNQKFQGKASLTVDRSSSTAYMELHSLTSEDSAVYYCAREFYGYRYFDVWGQGTAVTVSS VL: not shown
3.76e+09 M⁻¹	266 pM	0.9 fold	0.00111 s⁻¹	4.15e+06 M⁻¹ s⁻¹	hu2H11R35R74-PEG4-NHAc-DM4 (D/A 8.4) (antibody, V domains shown, DM4 through PEG4-NHAc linker on lysine residues, sites not given; average D/A 8.4 per antibody, Antibody-drug conjugate of hu2H11R35R74; constant regions as for m2) VH: QVQLVQSGAEVVKPGASVKISCKASGYTFTAYYMHWVKQSPVQSLEWIGLVNPYNGFSSYNQKFQGKASLTVDRSSSTAYMELHSLTSEDSAVYYCAREFYGYRYFDVWGQGTAVTVSS VL: not shown
6.16e+08 M⁻¹	1620 pM	5.4 fold	0.00242 s⁻¹	1.49e+06 M⁻¹ s⁻¹	hu2H11-PEG4-NHAc-DM4 (D/A 7.5) (antibody, V domains shown, DM4 through PEG4-NHAc linker on surface lysine residues, sites not given; average D/A 7.5 per antibody, Antibody-drug conjugate of hu2H11; also called conjugated hu2H11) VH: QVQLVQSGAEVVKPGASVKISCKASGYTFTAYYMHWVKQSPVQSLEWIGLVNPYNGFSSYNQKFQGKASLTVDKSSSTAYMELHSLTSEDSAVYYCAREFYGYRYFDVWGQGTAVTVSS VL: not shown
3.39e+09 M⁻¹	298 pM	1 fold	0.0011 s⁻¹	3.71e+06 M⁻¹ s⁻¹	hu2H11 (antibody, V domains shown, Humanized IgG made in CHO cells; also called hu53.2H11; humanized 53.2H11) VH: QVQLVQSGAEVVKPGASVKISCKASGYTFTAYYMHWVKQSPVQSLEWIGLVNPYNGFSSYNQKFQGKASLTVDKSSSTAYMELHSLTSEDSAVYYCAREFYGYRYFDVWGQGTAVTVSS VL: not shown
